# Measured values: paper PMC2199947
# Target: receptor-type protein tyrosine phosphatase PTPmu (endogenous, MvLu mink lung cells) (mink (endogenous in MvLu))
# Assay: co-IP
row,percent of the cadherin cleared from the lysate by immunoprecipitation of PTPmu [%],Substance
1,80,116-kD cadherin of MvLu cells (natural protein)
2,80,130-kD cadherin of MvLu cells (natural protein)
